Non-standard residues stand in square brackets, D forms with d. No end group written: not given here. pT = C[C@@H](OP(=O)(O)O)[C@H](N)C(=O)O
Target: HA-EGFP-Plk1, P53350
Assay: ELISA competition
Conditions: remark: other sources report otherwise

HA-EGFP-Plk1, P53350, sequence (P53350 whole entry): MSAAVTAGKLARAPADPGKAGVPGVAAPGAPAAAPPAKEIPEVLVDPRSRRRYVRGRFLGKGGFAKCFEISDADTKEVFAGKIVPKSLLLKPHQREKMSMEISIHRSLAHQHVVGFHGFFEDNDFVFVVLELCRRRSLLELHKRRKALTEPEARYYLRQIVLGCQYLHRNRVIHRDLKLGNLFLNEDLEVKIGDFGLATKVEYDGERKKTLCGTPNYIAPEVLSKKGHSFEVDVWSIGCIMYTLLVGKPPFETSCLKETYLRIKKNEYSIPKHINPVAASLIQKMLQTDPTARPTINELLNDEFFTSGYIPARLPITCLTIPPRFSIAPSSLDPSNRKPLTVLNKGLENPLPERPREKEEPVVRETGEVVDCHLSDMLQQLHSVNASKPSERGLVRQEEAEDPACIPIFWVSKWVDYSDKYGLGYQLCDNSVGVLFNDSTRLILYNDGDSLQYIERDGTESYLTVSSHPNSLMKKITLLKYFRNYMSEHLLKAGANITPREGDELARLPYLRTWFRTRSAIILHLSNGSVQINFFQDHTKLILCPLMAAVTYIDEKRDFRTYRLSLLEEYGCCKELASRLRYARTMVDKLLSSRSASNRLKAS

Binder: PLHA[pT] (also: Pro 1 modified as in ether analogue 7 (structure not given here)) [peptide 9 (Example 12), S/A mutant of 7]
- fold loss of binding affinity: > 100 fold

Binder: PLHA[pT] (also: further groups not given here) [peptide 5 (Example 15), S/A mutant of 3l]
- fold decrease in binding against 3l: 100 fold

Binder: PLHA[pT] (also: Pro 1 modified as in ether analogue 8 (structure not given here)) [peptide 11 (Example 12), S/A mutant of 8]
- fold loss of binding affinity: > 100 fold

Source: patent publication US20120065146A1
